Six substances from patent publication US6623741 can be followed below.

For the first test, the target named is viral gp41 of HIV-1 (on HIV-1 virions and HIV-1 infected cells) (HIV-1) (UniProt P04578). Put plainly: cell-based or functional assay.
Turning to DP107 (peptide), the Cell Fusion (IC90) stood at 1000 nM and the HIV-infectivity (IC90) worked out at 1000 nM.
With DP178 (peptide), the Cell Fusion (IC90) stood at 1 nM and the HIV-infectivity (IC90) is 80 nM.
On the same counts, the results for “M41 (maltose binding protein fused to the extracellular domain of HIV-1 gp41, residues 540-686) (from UniProt P03377 540-686)” are more than 50000 nM and more than 16 nM.
Consider “M41-P (M41 with Ile to Pro mutation at position 578) (from UniProt P03377 540-686)”, for which the Cell Fusion (IC90) came out at 83 nM and the HIV-infectivity (IC90) was 66 nM.
In the same order, the values of “M41-PΔ178 (M41Δ178 with the Ile to Pro mutation at position 578) (from UniProt P03377 540-642)” are more than 50000 nM and more than 8000 nM.

A further test has as its target MF-IV (MF5.1): E. coli maltose binding protein fused to RSV F protein residues 142-302 (E. coli; respiratory syncytial virus (strain A2)) (UniProt P03420). Put plainly: competitive binding assay (B50) on the MF5.1 fusion protein (DP107 target).
Take T1091 (peptide): the binding affinity was found to be 19 nM.

The target is the same in another test. Put plainly: competitive binding assay (B50) on the MF5.1 fusion protein; reference T112.
For T1091 (peptide), the fold lower binding affinity than T112 was found to be 10 fold.
